{"source": "the supplement of paper PMC9112550", "about": "“Optimization of the antimicrobial peptide Bac7 by deep mutational scanning” (BMC Biology, 2022);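 also: peptides expressed intracellularly from a pBAD plasmid library in pooled LB shake-flask culture, induced with 0.3% L-arabinose, DNA abundance read by NGS, three biological replicates, DESeq2 with apeglm shrinkage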", "test_system": "Escherichia coli TOP10", "assay": "shrunken log2 fold change of peptide-encoding DNA abundance (4.5 h post-induction vs induction); higher = less antimicrobial activity (less host growth inhibition)", "conditions": "time post-induction: 4.5 h; library: site-saturation at positions 5, 18, 19, 20"}
{"sequence": "RRIRRRPPRLPRPRPRPLYSPRP", "values": [{"measurement": "shrunken log2 fold change", "result": -0.0185}]}
{"sequence": "RRIRRRPPRLPRPRPRPIYCPRP", "values": [{"measurement": "shrunken log2 fold change", "result": -0.0446}]}
{"sequence": "RRIRARPPRLPRPRPRPMYDPRP", "values": [{"measurement": "shrunken log2 fold change", "result": 0.15}]}
{"sequence": "RRIRHRPPRLPRPRPRPLYCPRP", "values": [{"measurement": "shrunken log2 fold change", "result": -0.327}]}
{"sequence": "RRIRIRPPRLPRPRPRPQMRPRP", "values": [{"measurement": "shrunken log2 fold change", "result": 0.0729}]}
{"sequence": "RRIRHRPPRLPRPRPRPYQKPRP", "values": [{"measurement": "shrunken log2 fold change", "result": -0.01}]}
{"sequence": "RRIRYRPPRLPRPRPRPETNPRP", "values": [{"measurement": "shrunken log2 fold change", "result": 0.0266}]}
{"sequence": "RRIRKRPPRLPRPRPRPCTMPRP", "values": [{"measurement": "shrunken log2 fold change", "result": -0.271}]}
{"sequence": "RRIRYRPPRLPRPRPRPHFDPRP", "values": [{"measurement": "shrunken log2 fold change", "result": 0.144}]}
{"sequence": "RRIRCRPPRLPRPRPRPQFSPRP", "values": [{"measurement": "shrunken log2 fold change", "result": -0.145}]}
{"sequence": "RRIRDRPPRLPRPRPRPHWNPRP", "values": [{"measurement": "shrunken log2 fold change", "result": -0.201}]}
{"sequence": "RRIRGRPPRLPRPRPRPIQHPRP", "values": [{"measurement": "shrunken log2 fold change", "result": -0.0341}]}
{"sequence": "RRIRERPPRLPRPRPRPEAKPRP", "values": [{"measurement": "shrunken log2 fold change", "result": 0.0152}]}
{"sequence": "RRIRGRPPRLPRPRPRPIMVPRP", "values": [{"measurement": "shrunken log2 fold change", "result": -0.0212}]}
{"sequence": "RRIRHRPPRLPRPRPRPTRKPRP", "values": [{"measurement": "shrunken log2 fold change", "result": 0.00421}]}
{"sequence": "RRIRNRPPRLPRPRPRPAWLPRP", "values": [{"measurement": "shrunken log2 fold change", "result": 0.276}]}
{"sequence": "RRIRTRPPRLPRPRPRPHSSPRP", "values": [{"measurement": "shrunken log2 fold change", "result": -0.119}]}
{"sequence": "RRIRWRPPRLPRPRPRPEDHPRP", "values": [{"measurement": "shrunken log2 fold change", "result": 0.304}]}
{"sequence": "RRIRCRPPRLPRPRPRPFLDPRP", "values": [{"measurement": "shrunken log2 fold change", "result": -0.0521}]}
{"sequence": "RRIRQRPPRLPRPRPRPLWNPRP", "values": [{"measurement": "shrunken log2 fold change", "result": -0.245}]}
{"sequence": "RRIRRRPPRLPRPRPRPCLYPRP", "values": [{"measurement": "shrunken log2 fold change", "result": -0.117}]}
{"sequence": "RRIRQRPPRLPRPRPRPFKAPRP", "values": [{"measurement": "shrunken log2 fold change", "result": -0.059}]}
{"sequence": "RRIRHRPPRLPRPRPRPARQPRP", "values": [{"measurement": "shrunken log2 fold change", "result": 0.14}]}
{"sequence": "RRIRRRPPRLPRPRPRPSGGPRP", "values": [{"measurement": "shrunken log2 fold change", "result": 0.318}]}
{"sequence": "RRIRDRPPRLPRPRPRPKMDPRP", "values": [{"measurement": "shrunken log2 fold change", "result": 0.0675}]}
{"sequence": "RRIRCRPPRLPRPRPRPMHYPRP", "values": [{"measurement": "shrunken log2 fold change", "result": -0.24}]}
{"sequence": "RRIRSRPPRLPRPRPRPTAHPRP", "values": [{"measurement": "shrunken log2 fold change", "result": 0.284}]}
{"sequence": "RRIRGRPPRLPRPRPRPHIVPRP", "values": [{"measurement": "shrunken log2 fold change", "result": 0.106}]}
{"sequence": "RRIRERPPRLPRPRPRPNLKPRP", "values": [{"measurement": "shrunken log2 fold change", "result": -0.56}]}
{"sequence": "RRIRIRPPRLPRPRPRPSRTPRP", "values": [{"measurement": "shrunken log2 fold change", "result": -0.455}]}
{"sequence": "RRIRHRPPRLPRPRPRPPVDPRP", "values": [{"measurement": "shrunken log2 fold change", "result": 1.89}]}
{"sequence": "RRIRYRPPRLPRPRPRPNCYPRP", "values": [{"measurement": "shrunken log2 fold change", "result": -0.0166}]}
{"sequence": "RRIRTRPPRLPRPRPRPLIIPRP", "values": [{"measurement": "shrunken log2 fold change", "result": -0.784}]}
{"sequence": "RRIRYRPPRLPRPRPRPMVWPRP", "values": [{"measurement": "shrunken log2 fold change", "result": -0.0211}]}
{"sequence": "RRIRQRPPRLPRPRPRPRWIPRP", "values": [{"measurement": "shrunken log2 fold change", "result": 0.274}]}
{"sequence": "RRIRIRPPRLPRPRPRPEFLPRP", "values": [{"measurement": "shrunken log2 fold change", "result": -0.0199}]}
{"sequence": "RRIRGRPPRLPRPRPRPAKHPRP", "values": [{"measurement": "shrunken log2 fold change", "result": 0.209}]}
{"sequence": "RRIRGRPPRLPRPRPRPCSTPRP", "values": [{"measurement": "shrunken log2 fold change", "result": 1.14}]}
{"sequence": "RRIRVRPPRLPRPRPRPWMDPRP", "values": [{"measurement": "shrunken log2 fold change", "result": 0.0171}]}
{"sequence": "RRIRVRPPRLPRPRPRPIDDPRP", "values": [{"measurement": "shrunken log2 fold change", "result": -0.14}]}
{"sequence": "RRIRERPPRLPRPRPRPRDSPRP", "values": [{"measurement": "shrunken log2 fold change", "result": 0.0154}]}
{"sequence": "RRIRDRPPRLPRPRPRPVECPRP", "values": [{"measurement": "shrunken log2 fold change", "result": 0.018}]}
{"sequence": "RRIRPRPPRLPRPRPRPGEDPRP", "values": [{"measurement": "shrunken log2 fold change", "result": 0.461}]}
{"sequence": "RRIRVRPPRLPRPRPRPMTFPRP", "values": [{"measurement": "shrunken log2 fold change", "result": -0.0219}]}
{"sequence": "RRIRKRPPRLPRPRPRPRANPRP", "values": [{"measurement": "shrunken log2 fold change", "result": 0.588}]}
{"sequence": "RRIRPRPPRLPRPRPRPQAVPRP", "values": [{"measurement": "shrunken log2 fold change", "result": 0.0933}]}
{"sequence": "RRIRVRPPRLPRPRPRPGIIPRP", "values": [{"measurement": "shrunken log2 fold change", "result": 0.136}]}
{"sequence": "RRIRLRPPRLPRPRPRPYQHPRP", "values": [{"measurement": "shrunken log2 fold change", "result": -0.661}]}
{"sequence": "RRIRTRPPRLPRPRPRPPHHPRP", "values": [{"measurement": "shrunken log2 fold change", "result": -0.149}]}
{"sequence": "RRIRERPPRLPRPRPRPNNQPRP", "values": [{"measurement": "shrunken log2 fold change", "result": -0.59}]}
